Measurements from PMC10953559, “Native Capillary Electrophoresis–Mass Spectrometry of Near 1 MDa Non‐Covalent GroEL/GroES/Substrate Protein Complexes” (Advanced Science, 2024).
Positions count from the first letter of the chain named.

B1: N-acetyl neuraminic acid aldolase, native tetramer (NanA4) (enzyme, E. coli, UniProt P0A6L4 2-297, looked up)
chain: ATNLRGVMAALLTPFDQQQALDKASLRRLVQFNIQQGIDGLYVGGSTGEAFVQSLSEREQVLEIVAEEAKGKIKLIAHVGCVSTAESQQLAASAKRYGFDAVSAVTPFYYPFSFEEHCDHYRAIIDSADGLPMVVYNIPALSGVKLTLDQINTLVTLPGVGALKQTSGDLYQMEQIRREHPDLVLYNGYDEIFASGLLAGADGGIGSTYNIMGWRYQGIVKALKEGDIQTAQKLQTECNKVIDLLIKTGVFRGLKTVLHYMDVVSVPLCRKPFGPVDEKYLPELKALAQQLMQERG
notes: N-acetyl neuraminic acid aldolase NanA, E. coli, WT monomer; the theoretical mass quoted for the detected tetramer (129 849.09 Da) is that with the N-terminal methionine cleaved; also called tetrameric NanA4; source: E. coli BL21 (DE3) Gold, purified from the soluble fraction (chromatography, size exclusion)
B2: co-chaperonin GroES 7-mer (GroES7) (natural protein, E. coli, UniProt P0A6F9 1-97, looked up)
chain: MNIRPLHDRVIVKRKEVETKSAGGIVLTGSAAAKSTRGEVLAVGNGRILENGEVKPLDVKVGDIVIFNDGYGVKSEKIDNEEVLIMSESDILAIVEA
notes: GroES, E. coli, WT monomer; the measured mass fits the non-truncated form (N-terminal methionine kept); also called apo-GroES7; source: E. coli BL21 (DE3) Gold, purified from the soluble fraction (chromatography, size exclusion)
B3: double-ring (DR) mutant GroEL 14-mer (mutant GroEL14) (natural protein, E. coli, UniProt P0A6F5 2-548, looked up)
chain: AAKDVKFGNDARVKMLRGVNVLADAVKVTLGPKGRNVVLDKSFGAPTITKDGVSVAREIELEDKFENMGAQMVKEVASKANDAAGDGTTTATVLAQAIITEGLKAVAAGMNPMDLKRGIDKAVTAAVEELKALSVPASDSKAIAQVGTISANSDETVGKLIAEAMDKVGKEGVITVEDGTGLQDELDVVEGMQFDRGYLSPYFINKPETGAVELESPFILLADKKISNIREMLPVLEAVAKAGKPLLIIAEDVEGEALATLVVNTMRGIVKVAAVKAPGFGDRRKAMLQDIATLTGGTVISEEIGMELEKATLEDLGQAKRVVINKDTTTIIDGVGEEAAIQGRVAQIRQQIEEATSDYDREKLQERVAKLAGGVAVIKVGAATEVEMKEKKARVEDALHATRAAVEEGVVAGGGVALIRVASKLADLRGQNEDQNVGIKVALRAMEAPLRQIVLNAGEEPSVVANTVKGGDGNYGYNAATEEYGNMIDMGILDPTKVTRSALQYAASVAGLMITTEAMVTDLPKNDAADLGAAGGMGGMGGMGGMC
notes: GroEL, E. coli, UniProtKB P0A6F5, with four mutations made by QuikChange from the WT GroEL gene; the measured mass fits 14 monomers with the N-terminal methionine cleaved; numbers count the first methionine; also called DR GroEL14; source: E. coli BL21 (DE3) Gold, purified from the soluble fraction (chromatography, size exclusion); copies: 14
B4: single-ring (SR) mutant GroEL 7-mer (GroEL7) (natural protein, E. coli, UniProt P0A6F5 2-548, looked up)
chain: B3 chain with A137C, R451E, A457C, E460A, S462A, V463A, A518C, C547M
notes: GroEL, E. coli, UniProtKB P0A6F5, with four mutations made by QuikChange from the WT GroEL gene; theoretical mass quoted for 7 monomers with the N-terminal methionine cleaved; numbers count the first methionine; also called SR GroEL7; mutant SR; source: E. coli BL21 (DE3) Gold, purified from the soluble fraction (chromatography, size exclusion)

Assays:
[1] = molecular target: the molecule itself; assay: native MS; capillary electrophoresis online with native ESI-MS (CE-MS) of the oligomer; bare fused silica capillary, BGE 50 mM ammonium acetate pH 6.7, 20 kV reverse polarity, cartridge 15 °C, in-source desolvation 100 V; sample diluted in 50 mM Tris-HCl pH 7.5, 50 mM KCl, 15 mM MgCl2
[2] = molecular target: B3; assay: native MS; CE-MS; GroEL14 (6 µM) and GroES7 (6 µM) injected; BGE 50 mM ammonium acetate pH 6.7 with 10 to 50 µM ATPγS and 15 to 75 µM Mg2+; conditions: both partners purified

Binder | stoichiometry N [1] | stoichiometry N [2]
B1 | 4 subunits | 
B2 | 7 subunits | 1 GroES7 per GroEL14
B3 | 14 subunits | 
B4 | 7 subunits | 
